# Measurements: US20240343789A1 (published 2024)
# Where two headings read alike, the source gives them in different places.
# T1: IGFR-L1 protein (Endosome/lysosome-associated apoptosis and autophagy regulator 1, ELAPOR1) (UniProt Q6UXG2 42-1013)
# T1 chain: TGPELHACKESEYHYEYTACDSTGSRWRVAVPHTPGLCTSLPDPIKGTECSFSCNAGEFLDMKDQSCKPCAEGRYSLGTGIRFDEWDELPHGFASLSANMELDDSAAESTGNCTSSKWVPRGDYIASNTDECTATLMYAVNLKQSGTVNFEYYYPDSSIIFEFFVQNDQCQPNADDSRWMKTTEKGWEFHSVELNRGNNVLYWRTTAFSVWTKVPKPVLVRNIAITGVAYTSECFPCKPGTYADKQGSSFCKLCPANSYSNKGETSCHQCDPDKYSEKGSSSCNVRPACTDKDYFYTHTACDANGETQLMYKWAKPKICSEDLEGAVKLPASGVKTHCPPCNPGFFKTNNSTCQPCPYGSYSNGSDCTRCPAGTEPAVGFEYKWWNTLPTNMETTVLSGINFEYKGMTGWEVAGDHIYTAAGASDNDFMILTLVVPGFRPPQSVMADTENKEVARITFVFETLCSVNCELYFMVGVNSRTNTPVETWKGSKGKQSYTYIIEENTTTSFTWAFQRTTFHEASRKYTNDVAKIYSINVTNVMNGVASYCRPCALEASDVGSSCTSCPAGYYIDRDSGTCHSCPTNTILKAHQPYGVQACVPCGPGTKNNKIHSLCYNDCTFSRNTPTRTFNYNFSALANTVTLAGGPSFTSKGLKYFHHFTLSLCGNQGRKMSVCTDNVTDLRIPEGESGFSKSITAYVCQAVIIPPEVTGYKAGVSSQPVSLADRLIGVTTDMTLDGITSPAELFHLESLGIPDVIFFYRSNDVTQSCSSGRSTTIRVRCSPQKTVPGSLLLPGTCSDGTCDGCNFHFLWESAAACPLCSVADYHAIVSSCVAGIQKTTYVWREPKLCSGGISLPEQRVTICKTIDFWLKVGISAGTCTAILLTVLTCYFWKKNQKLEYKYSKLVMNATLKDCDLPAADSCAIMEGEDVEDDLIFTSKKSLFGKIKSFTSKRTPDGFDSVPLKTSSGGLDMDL
# Columns and labels:
# Experiment in all cases: ECL ELISA titration
# [1] = biological target: T1, IGFR-L1 protein …
# [2] = biological target: T1, IGFR-L1 protein …
# [3] = biological target: T1, IGFR-L1 protein …
# [4] = biological target: T1, IGFR-L1 protein …
# [5] = biological target: T1, IGFR-L1 protein …
# [6] = biological target: T1, IGFR-L1 protein …
binder,measurement,setting,value
"AB-4 (antibody, V domains shown) VH: EVQLVESGGGFVRPGKSLKLSCSASGFTFNTYGMHWIRQAPGKGLDWVSYISSSSATAYADAVKGRFTISRDNAKNTLYLQLNSLRSEDTAIYHCAREATYYGYPRYYFDYWGQGVMVTVSS VL: DIQMTQSPSSMSVSLGDRVTFTCRASQDIGNYLSWYQQKPEKSPRLMIYTATDLEDGVPSRFSGSRSGSDYSLTINSLESEDRGIYFCLQHKQYPYTFGSGTKLELKR",Kd,[1],2.76 nM
"AB-3 (antibody, V domains shown) VH: EVQLLESGGGLVQPGGSLSLSCAASGFTFTDFYMNWIRQPAGKAPEWLAFARNKANGYTTDYNPSVKGRFAISRDNTQNMFYLHMNTLRPEDTATYYCARGRPSDYWGQGVMVTVSS VL: DIVMTQSPSSLAVSTGETVTMDCKSSQNLFYSGNQRNYLAWYQQKPGQSPTLLIYWASTRRSGVPDRFIGSGSGTDFTLTISSVQAEDLALYYCQQYDDPPYTFGAGTKLELKR",Kd,[1],2.75 nM
"AB-6 (antibody, V domains shown) VH: EVQLVESDGGLVQPGRSLKLSCAASGFSFSDYYMAWLRQAPTKGLEWVATISHDGTGTYFRDSVKGRFTISRDNVKSTLYLQLDSLRSEDTATYYCARHKDGGYKDYWGQGVMVTVSS VL: DIKMTQSPSPLSASLGERVTISCRASDNIDNYLSWYQKKEDGSVRLLIYHTSRLQPGAPSRFSGSGSGKDYSLTISGLESEDIATYYCQQTYTPYTFGAGTKLELRR",Kd,[2],5.27 nM
"AB-12 (antibody, V domains shown) VH: EVKLLESGGGLVQPGGSMRLSCAASGFTFTDFYMNWIRQPAGKAPEWLGFIRNKANGYTTEYTPSVKGRFTISRDDTQNMLYLQMNTLRAEDTATYYCARHYYDGSYYYWYFDFWGPGTMVTVSS VL: DVVLTQTPVAQPVTLGDQVSISCRSSQSLVKSNGNTYLEWFLQKPGQSPQLLIYKVSNRFSGVPDRFIGSGSGSDFTLKISRVEPEDLGVYYCFQAAHDPRTFGGGTKLELKR",Kd,[3],2.79 nM
"AB-5 (antibody, V domains shown) VH: EVQLVESGGGLVQPGRSLKLSCAAPGFTFSASDMAWVRQAPTKGLEWVASISPSGDSTYYRDSILGRFTVSRDNAKSSLYLQMDSLRSEDTATYYCARHLGLGPFDHWGQGVMVTVSS VL: DIQMTQSPSLLSASVGDRVTLSCKAGRDINNYLAWYQQKLGEAPKLLIYNANFLQTGIPSRFSGSGSGTDYTLTISSLQPEDVATYFCQQFNTWTGTFGGGTKLELKR",Kd,[2],4.78 nM
"AB-9 (antibody, V domains shown) VH: EVQLVESGGGLVQPTGSVKLSCAASGFIFTNYGMAWVRQAPKKGLEWVAYISYDGGSTYFRDSVRGRFTISRDNAKSTLYLHMDSLRSEDTATYYCTTPRLDTWGQGVMVTVSS VL: DIQMTQSPSSLSASLGDRVTITCRPSQDIGNHLSWFQQKPGKSPRLMTYGATILEDGVPSRFSGSRSRSDYSLTISSLESEDTAIYYCLQYDKYPRTFGGGTKVELKR",Kd,[4],2.95 nM
"AB-8 (antibody, V domains shown) VH: QVQLQQSGAELAKPGSSVKISCKASGYTFTSYFISWIKQTTGQDLEYIGYINTGSGGTNYNEKFKGKATLTVDRSSSTAFMQLSSLTPDDSAVYYCARELRRVRGWFAYWGQGTLVTVSS VL: DTQMTQSPASLFASLGETVTIQCQASEDISSGLAWYQQKPGKSPHLLIYGANSLQDGVPSRFSGSGSGTQYSLKITNMQADDEGVYFCQQGLKYPFTFGSGTKLEIKR",Kd,[5],2.74 nM
"AB-7 (antibody, V domains shown) VH: QVKLLQSGAALVKPGDSVKMSCKASGYSFTDYSIHWVKQSHGKSLEWIGYINPYSGGTTYNEKFKRKATLTVDKSSSTAYMEFSRLTSEDSAIYYCAREGMGITLYVMDAWGQGASVTVSS VL: DIVLTQSPALAVSLGQRATVSCKASQTVTISRYHLLHWYQQKPGQQPTLLIYRASNLASGIPARFSGSGSGTDFTLTINPVQADDLASYYCQQSWGSPWTFGGGTKLELKR",Kd,[5],1.44 nM
"AB-1 (antibody, V domains shown) VH: EIQLQESGPGLVKPSQSLSLTCSVTDYTITSGFGWSWIRKFPGNKLEWMGYISYSGSTNYNPSLKSRLSLTRDTTKNQFFLQLISVTPEDTATYYCARSPLYGSNRYVVDAWGQGASVTVSS VL: DVQMTQSPSILTASPGESVSINCKASKSISNYLAWYQQKPGKSINLLIYSGSTLQSGTPSRFSGSGSGTDFTLTIRNLDPEDFGRYYCQQHNENPYTFGPGTRLELKR",Kd,[6],2.8 nM
"AB-10 (antibody, V domains shown) VH: GVQLVESGGGLVQSGRSIKVSCEASGFTFSNFYMAWVRQAPTKGLEWVASISSGGGNTHYRDSVRGRFTISRNNAKSTLYLQMDSLNSEDTATYYCARDPGGGSPYWYLDFWGPGTMVTVSS VL: DIVLTQSPALAVSLGQRATISCRANQNVDFYDNTYLHWYQQKPGQQPKLLIYLASNLASGIPARFSGGGSGTDFTLTIDPVEADDTATYYCQQSRNLPNTFGAGTKLELKR",Kd,[4],1.01 nM
"AB-2 (antibody, V domains shown) VH: EVQLVESDGGFVQPGRSLTLSCAASGFTFSDYYMSWVRQAPTKGLEWVATIGYDVSYTNYRDSVKGRFTISRDNAKSILSLQMDSLRSEDTATYYCARHPSYFDYWGQGVMVTVSS VL: DIVMTQSPSSLAVSAGETVTINCKSSQSLFYSENQKNYLAWLQQKPGQSPKLLITWASTRQSGVPDRFIGSGSGTDFTLTISSVQAEDLAIYHCQQYYDTPRTFGGGTQLELKR",Kd,[6],2.22 nM
"AB-11 (antibody, V domains shown) VH: EVQLVESDGGFVQPGRSLKLSCAASGFTFSDYYMSWVRQAPTKGLEWVATIGYDGTYTNYRDSVKGRFTISRDNARSILYLQMDSLRSEDTATYYCARHPSYFDHWGQGVMVTVSS VL: DIVMTQSPSSLAVSAGETVTINCKSSQSLLYSENQKNYLAWFQQRPGQSPKLLINWASTRQSGVPDRFIGSGSGTDFTLTISSVQAEDLATYHCQQYYDTPRTFGGGSKLELKR",Kd,[3],2.81 nM
